Assay [1] addresses GST-tagged HPV16 E6 with its PDZ binding motif deleted (human papillomavirus type 16). Nature of the assay: pull-down; purified GST fusion proteins on glutathione-conjugated agarose incubated with equal amounts of in vitro-translated HA-AurA, 1 h at room temperature; washed 3 times with PBS containing 0.1% Tween 20; bound AurA detected by Western blotting with an HA-specific antibody; bands quantified with ImageJ relative to GST-16E6 (n = 3). A general note: Immunoblotting shows a protein as a band on a membrane.

For assay [2] the target is unchanged.
For assay [3], the target named is T1, GST-tagged HPV16 E6 S145A (human papillomavirus type 16, UniProt P03126 1-158, S145A).
T1 construct: E6 oncoprotein of human papillomavirus type 16 with S145A, made by site-directed mutagenesis of the 16E6 construct (parent m2); 'full length' is said of the wild-type parent; the mutant is a point mutant of it; source: E. coli, IPTG-induced, purified on glutathione-conjugated agarose
The assay is described as follows: pull-down; purified GST fusion proteins on glutathione-conjugated agarose incubated with equal amounts of in vitro-translated HA-AurA, 1 h at room temperature; washed 3 times with PBS containing 0.1% Tween 20; bound AurA detected by Western blotting with an HA-specific antibody; bands quantified with ImageJ relative to GST-16E6 (n = 3). Conditions: one partner purified.

Assay [4] addresses T2, GST-tagged HPV16 E7 (human papillomavirus type 16, UniProt P03129 1-98).
T2 construct: E7 oncoprotein of human papillomavirus type 16; also called GST-16 E7; HPVE7; source: E. coli, purified GST fusion protein
T2 sequence: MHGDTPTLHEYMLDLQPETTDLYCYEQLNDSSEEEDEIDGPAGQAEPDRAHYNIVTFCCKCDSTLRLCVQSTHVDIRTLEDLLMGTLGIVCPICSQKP
The assay is described as above. Particulars: one partner purified.

The target of assay [5] is T3, GST-tagged HPV18 E6 (human papillomavirus type 18, UniProt P06463 1-158).
T3 construct: E6 oncoprotein of human papillomavirus type 18; construct pGEX2T:HPV-18 E6; also called GST-18E6; source: E. coli, IPTG-induced, purified on glutathione-conjugated agarose
Described as above. Particulars: one partner purified.

Assay [6] concerns the target T4, GST-tagged HPV16 E6 T140A (human papillomavirus type 16, UniProt P03126 1-158, T140A).
T4 construct: E6 oncoprotein of human papillomavirus type 16 with T140A, made by site-directed mutagenesis of the 16E6 construct (parent m2); 'full length' is said of the wild-type parent; the mutant is a point mutant of it; source: E. coli, IPTG-induced, purified on glutathione-conjugated agarose
The description is as above. Particulars: one partner purified.

Assay [7] concerns the target T5, GST-tagged HPV16 E6 S89A (human papillomavirus type 16, UniProt P03126 1-158, S89A).
T5 construct: E6 oncoprotein of human papillomavirus type 16 with S89A, made by site-directed mutagenesis of the 16E6 construct (parent m2); 'full length' is said of the wild-type parent; the mutant is a point mutant of it; source: E. coli, IPTG-induced, purified on glutathione-conjugated agarose
The description is as above. Particulars: one partner purified.

Assay [8] concerns the target T6, GST-tagged HPV58 E6 (human papillomavirus type 58, UniProt P26555 1-149).
T6 construct: E6 oncoprotein of human papillomavirus type 58; construct pGEX2T:HPV-58 E6; also called GST-58E6; source: E. coli, IPTG-induced, purified on glutathione-conjugated agarose
T6 sequence: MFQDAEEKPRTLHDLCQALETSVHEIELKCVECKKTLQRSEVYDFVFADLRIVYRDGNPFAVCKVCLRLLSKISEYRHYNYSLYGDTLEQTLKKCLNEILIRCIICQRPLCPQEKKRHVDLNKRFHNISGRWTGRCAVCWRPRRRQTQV
The assay is described as above. Particulars: one partner purified.

Assay [9] concerns the target T7, GST-tagged HPV11 E6 (human papillomavirus type 11, UniProt P04019 1-150).
T7 construct: E6 protein of human papillomavirus type 11 (low-risk type); construct pGEX2T:HPV-11 E6; also called GST-11E6; lr-HPV11E6; source: E. coli, IPTG-induced, purified on glutathione-conjugated agarose
T7 sequence: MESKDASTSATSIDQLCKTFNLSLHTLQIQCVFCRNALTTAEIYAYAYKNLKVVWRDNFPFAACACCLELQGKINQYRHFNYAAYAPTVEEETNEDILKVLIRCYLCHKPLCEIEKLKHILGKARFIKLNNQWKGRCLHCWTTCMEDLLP
Described as above. Conditions: one partner purified.

Assay [10] addresses T8, GST-tagged HPV16 E6 S150A (human papillomavirus type 16, UniProt P03126 1-158, S150A).
T8 construct: E6 oncoprotein of human papillomavirus type 16 with S150A, made by site-directed mutagenesis of the 16E6 construct (parent m2); 'full length' is said of the wild-type parent; the mutant is a point mutant of it; source: E. coli, IPTG-induced, purified on glutathione-conjugated agarose
Described as above. Particulars: one partner purified.

In assay [11] the target is T1, GST-tagged HPV16 E6 S145A. Nature of the assay: cell-based or functional assay.
Assay [12] addresses T4, GST-tagged HPV16 E6 T140A. Nature of the assay: cell-based or functional assay.
Assay [13] deals with T5, GST-tagged HPV16 E6 S89A. The assay is described as follows: cell-based or functional assay.
The target of assay [14] is T8, GST-tagged HPV16 E6 S150A. Nature of the assay: cell-based or functional assay.
For assay [15], the target named is GST-tagged HPV16 E6 wild type (human papillomavirus type 16, UniProt P03126 1-158). The assay is described as follows: cell-based or functional assay.

In assay [1], “Aurora kinase A (HA-AurA, in vitro translated) (from UniProt O14965 1-403) (enzyme)” registered an AurA bound relative to GST-16E6 (%) of 87%. Besides, the AurA kinase activity (ADP-Glo) of purified AurA in the presence of GST-E6 ΔPBM, relative to AurA with GST alone in [2] came to 0.85.

B1: Aurora kinase A (HA-AurA, in vitro translated) (enzyme, UniProt O14965 1-403, looked up)
chain: MDRSKENCISGPVKATAPVGGPKRVLVTQQFPCQNPLPVNSGQAQRVLCPSNSSQRIPLQAQKLVSSHKPVQNQKQKQLQATSVPHPVSRPLNNTQKSKQPLPSAPENNPEEELASKQKNEESKKRQWALEDFEIGRPLGKGKFGNVYLAREKQSKFILALKVLFKAQLEKAGVEHQLRREVEIQSHLRHPNILRLYGYFHDATRVYLILEYAPLGTVYRELQKLSKFDEQRTATYITELANALSYCHSKRVIHRDIKPENLLLGSAGELKIADFGWSVHAPSSRRTTLCGTLDYLPPEMIEGRMHDEKVDLWSLGVLCYEFLVGKPPFEANTYQETYKRISRVEFTFPDFVTEGARDLISRLLKHNPSQRPMLREVLEHPWITANSSKPSNCQNKESASKQS
notes: Aurora kinase A (AurA); plasmid pcDNA3.1:HA-AurA; the functional rows are written on this molecule; source: in vitro translated (TNT Coupled Reticulocyte Lysate System, Promega)
Turning to B1, the “AurA bound relative to GST-16E6 wild type (%)” value was 24% in assay [3], 25.3% in assay [6], 67.3% in assay [7] and 56% in [10]. Besides, the “AurA bound relative to GST-16E6 (%)” value in [4] is 37.3%; in assay [5], 102%; in assay [8] it was 158%; in assay [9], 12%. The “AurA kinase activity (ADP-Glo) of purified AurA in the presence of GST-E6 S145A, relative to AurA with GST alone” value in assay [11] came out at 0.68. Besides, the “AurA kinase activity (ADP-Glo) of purified AurA in the presence of GST-E6 T140A, relative to AurA with GST alone” value in assay [12] is 0.61. In [13], the “AurA kinase activity (ADP-Glo) of purified AurA in the presence of GST-E6 S89A, relative to AurA with GST alone” value was 0.65. In addition, the “AurA kinase activity (ADP-Glo) of purified AurA in the presence of GST-E6 S150A, relative to AurA with GST alone” value in [14] came out at 0.68. In addition, the “AurA kinase activity (ADP-Glo) of purified AurA in the presence of GST-E6, relative to AurA with GST alone” value in assay [15] was found to be 0.85.

Source of the values: article PMC9972942, “E6-Encoded by Cancer-Causing Human Papillomavirus Interacts with Aurora Kinase A To Promote HPV-Mediated Carcinogenesis” (Journal of Virology, 2023).
